Reference: patent publication US7897573B2, “Selective VPAC2 receptor peptide agonists” (priority 2005, dated 2011)
Like-named read-outs stand apart in the source and are kept apart here. Where no end group is shown, it is not given here.

Experiments:
Human PAC1 Receptor = target: T1, Human PAC1 Receptor (Homo sapiens, UniProt P41586); assay: Filter binding assay, 125I-labeled PACAP-27, membranes of cells transiently transfected with human PAC1
T1 construct: expressed in transfected cells
T1 sequence (P41586 21-468): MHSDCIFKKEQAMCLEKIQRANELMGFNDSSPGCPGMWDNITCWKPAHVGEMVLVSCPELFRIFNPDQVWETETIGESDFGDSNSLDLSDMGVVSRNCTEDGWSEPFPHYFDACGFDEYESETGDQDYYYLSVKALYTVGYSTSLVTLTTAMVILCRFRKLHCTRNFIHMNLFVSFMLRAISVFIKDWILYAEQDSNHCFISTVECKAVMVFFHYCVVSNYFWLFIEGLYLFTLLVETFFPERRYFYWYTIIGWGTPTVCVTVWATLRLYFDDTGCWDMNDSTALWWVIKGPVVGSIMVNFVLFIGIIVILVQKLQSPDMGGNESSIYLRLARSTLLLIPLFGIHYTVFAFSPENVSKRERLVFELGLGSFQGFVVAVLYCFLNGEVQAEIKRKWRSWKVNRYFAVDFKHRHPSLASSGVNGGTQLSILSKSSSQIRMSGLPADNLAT
Method: (§1) For this assay, the solutions and equipment include:
(§2) Presoak solution: 0.5% Polyethyleneamine in Aqua dest
(§3) Buffer for flushing filter plates: 25 mM HEPES pH 7.4
(§4) Blocking buffer: 25 mM HEPES pH 7.4; 0.2% protease free BSA
(§5) Assay buffer: 25 mM HEPES pH 7.4; 0.5% protease free BSA
(§6) Dilution and assay plate: PS-Microplate, U form
(§7) Filtration Plate Multiscreen FB Opaque Plate; […] Type B Glasfiber filter
(§8) In order to prepare the filter plates, the presoak solution is aspirated by vacuum filtration. The plates are flushed twice with 200 μL flush buffer. 200 μL blocking buffer is added to the filter plate. The filter plate is then incubated with 200 μL presoak solution for 1 hour at room temperature.
(§9) The assay plate is filled with 25 μL assay buffer, 25 μL membranes (2.5 μg) suspended in assay buffer, 25 μL agonist in assay buffer, and 25 μL tracer (about 40000 cpm) in assay buffer. The filled plate is incubated for 1 hour with shaking.
(§10) The transfer from assay plate to filter plate is conducted. The blocking buffer is aspirated by vacuum filtration and washed two times with flush buffer. 90 μL is transferred from the assay plate to the filter plate. The 90 μL transferred from assay plate is aspirated and washed three times with 200 μL flush buffer. The plastic support is removed. It is dried for 1 hour at 60° C. 30 μL Microscint is added. The count is performed.

[1] = Rat serum stability study (DiscoveRx cAMP read-out on CHO-VPAC2 cells); conditions: 24 h in rat serum at 37° C.; EC50, 4° C./EC50, 37° C.; values >100% may represent release of intact peptide from the PEG conjugate
Method: In order to determine the stability of VPAC2 receptor peptide agonists in rat serum, CHO-VPAC2 cells clone #6 (96 well plates/50,000 cells/well and 1 day culture), PBS 1× (Gibco), the peptides for the analysis in a 100 μM stock solution, rat serum from a sacrificed normal Wistar rat, aprotinin, and a DiscoveRx assay kit are obtained. The rat serum is stored at 4° C. until use and is used within two weeks.
The aliquot is stored with aprotinin at 4° C. The aliquot is stored without aprotinin at 37° C. The aliquots are incubated for 24 or 72 hours.
On Day 1, after incubation of the aliquots prepared on day 0 for 24 or 72 hours, an incubation buffer containing PBS+1.3 mM CaCl2, 1.2 mM MgCl2, 2 mM glucose, and 0.25 mM IBMX is prepared. A plate with 11 serial 5× dilutions of peptide for the 4° C. and 37° C. aliquot is prepared for each peptide studied. […] The plate(s) are washed with cells twice in incubation buffer. The plates are allowed to hold 50 μL incubation media per well for 15 minutes. 50 μL solution per well is transferred to the cells from the plate prepared with 11 serial 5× dilutions of peptide for the 4° C. and 37° C. aliquot for each peptide studied, using the maximal concentrations that are indicated by the primary screen, in duplicate. This step dilutes the peptide concentration by a factor of two. The cells are incubated at room temperature for 30 minutes. The supernatant is removed. 40 μL/well of the DiscoveRx antibody/extraction buffer is added. The cells are incubated on the shaker (300 rpm) for 1 hour. Normal procedure with the DiscoveRx kit is followed. cAMP standards are included in column 12. EC50 values are determined from the cAMP assay data.

Human VPAC1 Receptor = target: T2, Human VPAC1 Receptor (Homo sapiens, UniProt P32241); assay: Filter binding assay, 125I-labeled VIP, membranes of cells transiently transfected with human VPAC1; conditions: 125I-labeled VIP tracer
T2 construct: expressed in transfected cells
T2 sequence (P32241 31-457): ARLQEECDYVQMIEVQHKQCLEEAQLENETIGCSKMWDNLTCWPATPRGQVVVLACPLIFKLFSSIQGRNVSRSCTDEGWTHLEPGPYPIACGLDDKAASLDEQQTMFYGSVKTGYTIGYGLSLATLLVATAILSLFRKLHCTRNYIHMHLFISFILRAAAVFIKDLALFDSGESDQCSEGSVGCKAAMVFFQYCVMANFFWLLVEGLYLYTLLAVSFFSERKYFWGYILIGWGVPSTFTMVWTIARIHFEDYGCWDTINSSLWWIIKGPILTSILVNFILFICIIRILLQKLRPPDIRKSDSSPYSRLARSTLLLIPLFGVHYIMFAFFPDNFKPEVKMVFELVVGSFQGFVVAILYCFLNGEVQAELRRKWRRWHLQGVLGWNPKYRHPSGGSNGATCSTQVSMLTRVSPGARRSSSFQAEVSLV
Method: as §1, §2, §3, §4, §5, §6, §7, §8, §9, §10

[2] = Pharmacokinetic profiles of PEGylated peptides in Fisher 344 rats; type: in vivo, rat; conditions: 100 μg agonist/kg, plasma RIA, mean N = 3
Method: Pharmacokinetic profiles of PEGylated peptides. Healthy Fisher 344 rats (3 animals per group) were injected with 100 μg agonist/kg (agonist amount based on peptide content and dissolved in PBS buffer). Blood samples were drawn 3, 12, 24, 48, 72, 96 and 168 hour post dosing and the peptide content in plasma was analysed by a radio-immunoassay (RIA) directed against the N-terminus of the peptide. PK parameters were then calculated using a model-independent method (WinNonlin Pro, Pharsight Corp., Mountain View, Calif., USA).

Normal Wistar rats = assay: Intravenous glucose tolerance test (IVGTT); type: in vivo, rat; conditions: AUC insulin, 0-10 min after glucose, 24 h between glucose & compound, Wistar rats
Method: Intravenous glucose tolerance test (IVGTT): Normal Wistar rats are fasted overnight and are anesthetized prior to the experiment. A blood sampling catheter is inserted into the rats. The agonist is given subcutaneously, normally 24 h prior to the glucose challenge. Blood samples are taken from the carotid artery. A blood sample is drawn immediately prior to the injection of glucose along with the agonist. After the initial blood sample, glucose mixed is injected intravenously (i.v.). A glucose challenge of 0.5 g/kg body weight is given, injecting a total of 1.5 mL vehicle with glucose and agonist per kg body weight. The peptide concentrations are varied to produce the desired dose in μg/kg. Blood samples are drawn at 2, 4, 6 and 10 minutes after giving glucose. The control group of animals receives the same vehicle along with glucose, but with no agonist added. In some instances, 20 and 30 minute post-glucose blood samples were drawn. Aprotinin is added to the blood sample (250-500 kIU/ml blood). The plasma is then analyzed for glucose and insulin using standard methodologies.
The assay uses a formulated and calibrated peptide stock in PBS. Normally, this stock is a prediluted 100 μM stock. However, a more concentrated stock with approximately 1 mg agonist per mL is used. The specific concentration is always known. Variability in the maximal response is mostly due to variability in the vehicle dose.

| Compound | IC50 (Human PAC1 Receptor) | 24 h stab (%) [1] | IC50 (Human VPAC1 Receptor) | IC50 (Human PAC1 Receptor; 125I-labeled PACAP-27 tracer) | AUC0-last [2] | Cl/F [2] | Cmax [2] | Tmax [2] | T½ [2] | % increase AUC: Dose = 0.09 mg/kg (Normal Wistar rats; 0.09 mg/kg) | % increase AUC: Dose = 0.3 mg/kg (Normal Wistar rats) | % increase AUC: Dose = 0.1 mg/kg (Normal Wistar rats) |
| --- | --- | --- | --- | --- | --- | --- | --- | --- | --- | --- | --- | --- |
| CC[C@H](C)[C@H](NC(=O)[C@H](CO)NC(=O)[C@H](CC(N)=O)NC(=O)[C@H](CC(C)C)NC(=O)[C@H](Cc1ccc(O)cc1)NC(=O)[C@H](CCCCN)NC(=O)[C@H](CCCCN)NC(=O)[C@@H](NC(=O)[C@H](C)NC(=O)[C@H](CCSC)NC(=O)[C@H](CCC(N)=O)NC(=O)[C@H](CCCCN)NC(=O)[C@H](CCCN=C(N)N)NC(=O)[C@H](CC(C)C)NC(=O)[C@H](CCCN=C(N)N)NC(=O)[C@@H](NC(=O)[C@H](Cc1ccc(O)cc1)NC(=O)[C@H](CC(N)=O)NC(=O)[C@H](CC(=O)O)NC(=O)[C@@H](NC(=O)[C@H](Cc1ccccc1)NC(=O)[C@@H](NC(=O)[C@H](C)NC(=O)[C@H](CC(=O)O)NC(=O)[C@H](CO)NC(=O)[C@@H](N)Cc1cnc[nH]1)C(C)C)[C@@H](C)O)[C@@H](C)O)C(C)C)C(=O)N[C@@H](CC(C)C)C(=O)N[C@@H](CC(N)=O)C(=O)O [VIP, reference compound] | > 1000 nM | 0.2% |  |  |  |  |  |  |  |  |  |  |
| C6-HSDAVFTEQY(OMe)TOrnLRAibQLAAbuAibOrnY(OMe)LQAibIOrnOrnGGPSSGAPPPC(PEG20K)C(PEG20K)-NH2 (HSDAVFTEQYTXLRXQLAXXXYLQXIXXGGPSSGAPPPCC; C6 acyl, non-natural residues, two PEG20K, C-terminal amide; Synthetic sequence PEGylated VPAC2 receptor agonist) [Agonist P574] |  | 288% | > 25000 nM | > 25000 nM | 3408 ng·h/mL | 0.467 mL/min/kg | 70 ng/mL | 20 h | 18 h |  |  |  |
| C6-HSDAVFTEQY(OMe)TOrnLRAibQLAAbuAibOrnYLQSIOrnC(PEG20K)OrnGGPSSGAPPPC(PEG20K)-NH2 (HSDAVFTEQYTXLRXQLAXXXYLQSIXCXGGPSSGAPPPC; C6 acyl, two PEG20K, C-terminal amide; Synthetic sequence PEGylated VPAC2 receptor agonist) [Agonist P555] |  | 117% | > 25000 nM | > 25000 nM | 4918 ng·h/mL | 0.333 mL/min/kg | 102 ng/mL | 16 h | 13 h |  |  |  |
| C6-HSDAVFTEQY(OMe)TOrnLRAibQLAAbuAibOrnyAibQSIOrnOrnGGPSSGAPPPC(PEG30K)C(PEG30K)-NH2 (HSDAVFTEQYTXLRXQLAXXXYXQSIXXGGPSSGAPPPCC; not fully specified (some residues, N-terminus, C-terminus); printed as C6-HSDAVFTEQY(OMe)TOrnLRAibQLAAbuAibOrnyAibQSIOrnOrnGGPSSGAPPPC(PEG30K)C(PEG30K)-NH2; cysteine pairing not given here) [Agonist P602] |  | 573% | > 25000 nM | > 25000 nM |  |  |  |  |  | 73% | 198% |  |
| C6-HSDAVFTEQY(OMe)TOrnLRAibQLAAbuAibOrnyLQAibIOrnOrnGGPSSGAPPPC(PEG30K)C(PEG30K)-NH2 (HSDAVFTEQYTXLRXQLAXXXYLQXIXXGGPSSGAPPPCC; not fully specified (some residues, N-terminus, C-terminus); printed as C6-HSDAVFTEQY(OMe)TOrnLRAibQLAAbuAibOrnyLQAibIOrnOrnGGPSSGAPPPC(PEG30K)C(PEG30K)-NH2; cysteine pairing not given here) [Agonist P570] |  |  | > 25000 nM | > 25000 nM | 3891 ng·h/mL | 0.417 mL/min/kg | 71 ng/mL | 20 h | 25 h |  |  | 36% |
| C6-HSDAVFTEQY(OMe)TOrnLRAibQVAAAibOrnYLQSIOrnOrnC(PEG20K)GGPSSGAPPPC(PEG20K)NH2 (HSDAVFTEQYTXLRXQVAAXXYLQSIXXCGGPSSGAPPPC; C6 acyl, two PEG20K, C-terminal amide; Synthetic sequence PEGylated VPAC2 receptor agonist) [Agonist P562] |  | 213% | > 25000 nM | > 25000 nM | 5456 ng·h/mL | 0.317 mL/min/kg | 120 ng/mL | 24 h | 25 h |  |  |  |
| C6-HSDAVFTEQY(OMe)TOrnLRAibQVAAbuAibOrnYLQAibIOrnOrnGGPSSGAPPPC(PEG40K)-NH2 (HSDAVFTEQYTXLRXQVAXXXYLQXIXXGGPSSGAPPPC; C6 acyl, PEG40K on Cys, C-terminal amide; Synthetic sequence PEGylated VPAC2 receptor agonist) [Agonist P511] |  |  | > 25000 nM | > 25000 nM | 3067 ng·h/mL |  | 100 ng/mL | 16 h |  |  | 59% | 38% |
